Data published in patent publication US20120046222A1.

Molecular target: GLP-1 receptor (UniProt P32301)
Test: cell-based or functional assay

Substance | Cyclase GLP-1 Receptor EC50 [nM]
dAla^2,Pro^3,Leu^14,Phe^25-exendin-4 (1-28) amide (from UniProt P26349) (peptide) | 0.029
dAla^2,Pro^3-exendin-4 amide (from UniProt P26349 48-86) (peptide) | 0.004
